From patent publication US20130058935A1 (INSTITUTE FOR CANCER RESEARCH, published 2013)

Target: T1, mouse TEM7R extracellular domain, 6xHis-tagged, secreted (mouse, UniProt Q9DC11 31-455)
T1 construct: extracellular domain; also called mTEM7R ECD; TEM7R ECD; not shown: 6xHis tag from the pSecTag2/Hygro A vector
Assay: SPR (BIAcore), ECD immobilised on CM5 chip, 1:1 Langmuir fit
Procedure: scFvs were expressed in E. coli and purified by sequential IMAC and size exclusion chromatography (Robinson, M K et al. (2005) Cancer Research 65:1471-8). Binding of the TEM7R scFv, to extracellular domain (ECDs) was characterized by SPR using TEM7R ECD as the target antigen (Yuan, Q A et al. (2006) Mol. Cancer Ther. 5:2096-105). ECD was diluted to 10 μg/mL in 10 mM sodium acetate pH 5.2 and approximately 200 RU of ECD were immobilized onto CM5 sensor chips via NHS-ester chemistry.
Kinetic constants for A5 were determined by passing serially diluted samples (0 nM to 2 μM) over flow cells at flow rate of 40 μL/min. Response against an ErbB2 coated flow cell was used as a negative control and subtracted from the response generated against the TEM7R ECD to obtain the final sensorgrams. Data was evaluated using BIAEvaluation 3.2 software (BIAcore, Piscataway, N.J.) and fit using the 1:1 Langmuir binding model. Flow cells were regenerated by sequential 15-second pulses with 10 mM glycine, pH 2 and 50 mM Triethylamine, pH 10 followed by equilibration with PBS running buffer.

T1 sequence (Q9DC11 31-455): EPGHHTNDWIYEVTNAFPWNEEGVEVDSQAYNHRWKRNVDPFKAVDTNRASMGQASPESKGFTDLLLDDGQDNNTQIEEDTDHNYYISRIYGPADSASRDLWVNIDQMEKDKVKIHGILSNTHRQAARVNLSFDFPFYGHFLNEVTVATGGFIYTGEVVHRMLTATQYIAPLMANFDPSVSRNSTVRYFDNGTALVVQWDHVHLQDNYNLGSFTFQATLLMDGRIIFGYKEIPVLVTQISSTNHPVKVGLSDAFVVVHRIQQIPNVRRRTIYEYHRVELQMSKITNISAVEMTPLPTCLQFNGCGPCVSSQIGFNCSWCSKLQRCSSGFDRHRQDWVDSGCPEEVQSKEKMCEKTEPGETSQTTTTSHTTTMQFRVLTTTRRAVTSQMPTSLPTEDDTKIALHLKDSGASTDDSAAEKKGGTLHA

B1: anti-mTEM7R scFv#4 (scFv)
scFv: MAQVQLVESGGGLVQPGGSLRLSCAASGFTFSSYEMNWVRQAPGKGLEWVSYISSSGSTIYYADSVKGRFTISRDNSKNTLYLQMNSLRAEDTAVYYCASGDYMDVWGQGTTVTVSSSASGAELGGGGSGGGGSGGGGSTSDIQLTQSPSSLSASVGDRVTITCQASQDISNYLNWYQQKPGKAPKLLMYDASNLETGVPSRFSGSGSGTDFTFTISSLQPEDFATYYCQQSDNLPYTFGQGTKVDIKRS
notes: Human scFv from a naive phage library, expressed in E. coli TG1 (pUC119mycHis / pSYN2) and purified by Ni-NTA, so it carries a His tag; also called clone 4; anti-TEM7R scFv
- Kd: 10 nM
